Data published in patent publication US20170000850A1.

Target: CD137 ligand (CD137L) (human) (UniProt P41273)
Test: cell-based or functional assay

UniProt P41273, sequence (P41273 whole entry): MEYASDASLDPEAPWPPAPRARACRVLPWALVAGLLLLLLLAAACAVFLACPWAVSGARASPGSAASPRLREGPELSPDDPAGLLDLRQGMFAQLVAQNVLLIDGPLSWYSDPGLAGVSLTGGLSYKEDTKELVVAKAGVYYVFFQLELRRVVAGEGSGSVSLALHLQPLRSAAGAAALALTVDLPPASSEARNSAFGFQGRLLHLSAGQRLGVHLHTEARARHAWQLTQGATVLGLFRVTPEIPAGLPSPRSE

Substance: RBC-CD137-Fc (biotinylated CD137-Fc conjugated through avidin to biotinylated red blood cells) (from UniProt Q07011 24-186) (Fc fusion)
- IL-8 production by monocytes co-cultured for 5 days (ELISA): 2 fold
